According to the supplement of paper PMC9112550, “Optimization of the antimicrobial peptide Bac7 by deep mutational scanning” (BMC Biology, 2022):

Each sequence was assayed on Escherichia coli TOP10 (assay: shrunken log2 fold change of peptide-encoding DNA abundance (4.5 h post-induction vs induction); higher = less antimicrobial activity (less host growth inhibition)). Details: time post-induction: 4.5 h; library: site-saturation at positions 5, 18, 19, 20.
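Further: peptides expressed intracellularly from a pBAD plasmid library in pooled LB shake-flask culture, induced with 0.3% L-arabinose, DNA abundance read by NGS, three biological replicates, DESeq2 with apeglm shrinkage.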

In order of falling “shrunken log2 fold change” value:
1. RRIRMRPPRLPRPRPRPLRGPRP  2.15
2. RRIRGRPPRLPRPRPRPGDWPRP  1.34
3. RRIRVRPPRLPRPRPRPTQNPRP  0.693
4. RRIRMRPPRLPRPRPRPNCNPRP  0.675
5. RRIRARPPRLPRPRPRPCEEPRP  0.622
6. RRIRCRPPRLPRPRPRPRMRPRP  0.542
7. RRIRKRPPRLPRPRPRPIFVPRP  0.471
8. RRIRVRPPRLPRPRPRPPWPPRP  0.464
9. RRIRRRPPRLPRPRPRPGWCPRP  0.422
10. RRIRARPPRLPRPRPRPPAIPRP  0.382
11. RRIRRRPPRLPRPRPRPGDDPRP  0.362
12. RRIRARPPRLPRPRPRPMSEPRP  0.337
13. RRIRYRPPRLPRPRPRPPRRPRP  0.261
14. RRIRDRPPRLPRPRPRPAIKPRP  0.235
15. RRIRFRPPRLPRPRPRPQRDPRP  0.218
16. RRIRPRPPRLPRPRPRPKLFPRP  0.18
17. RRIRIRPPRLPRPRPRPAPVPRP  0.171
18. RRIRQRPPRLPRPRPRPRVWPRP  0.163
19. RRIRQRPPRLPRPRPRPKPSPRP  0.159
20. RRIRARPPRLPRPRPRPKMSPRP  0.126
21. RRIRIRPPRLPRPRPRPRRYPRP  0.111
22. RRIRRRPPRLPRPRPRPDRRPRP  0.108
23. RRIRGRPPRLPRPRPRPMYLPRP  0.0702
24. RRIRVRPPRLPRPRPRPVHLPRP  0.0586
25. RRIRGRPPRLPRPRPRPIWIPRP  0.0517
26. RRIRVRPPRLPRPRPRPLHGPRP  0.0379
27. RRIRSRPPRLPRPRPRPNAGPRP  0.0362
28. RRIRWRPPRLPRPRPRPCDGPRP  0.0333
29. RRIRKRPPRLPRPRPRPLHCPRP  0.0213
30. RRIRKRPPRLPRPRPRPSDPPRP  0.0131
31. RRIRARPPRLPRPRPRPMFFPRP  0.0123
32. RRIRTRPPRLPRPRPRPQMEPRP  0.00225
33. RRIRYRPPRLPRPRPRPASKPRP  -1.29e-05
34. RRIRGRPPRLPRPRPRPYLRPRP  -0.0169
35. RRIRDRPPRLPRPRPRPNVCPRP  -0.0195
36. RRIRRRPPRLPRPRPRPGVYPRP  -0.0241
37. RRIRWRPPRLPRPRPRPDRYPRP  -0.0301
38. RRIRDRPPRLPRPRPRPERIPRP  -0.0322
39. RRIRDRPPRLPRPRPRPYTEPRP  -0.0346
40. RRIRQRPPRLPRPRPRPDILPRP  -0.0607
41. RRIRHRPPRLPRPRPRPKCDPRP  -0.0608
42. RRIRARPPRLPRPRPRPMKVPRP  -0.0785
43. RRIRERPPRLPRPRPRPGCHPRP  -0.0878
44. RRIRCRPPRLPRPRPRPMMEPRP  -0.105
45. RRIRSRPPRLPRPRPRPWWDPRP  -0.137
46. RRIRFRPPRLPRPRPRPHPLPRP  -0.16
47. RRIRCRPPRLPRPRPRPDNAPRP  -0.164
48. RRIRWRPPRLPRPRPRPHFEPRP  -0.165
49. RRIRLRPPRLPRPRPRPFGKPRP  -0.168
50. RRIRWRPPRLPRPRPRPWHNPRP  -0.203
51. RRIRPRPPRLPRPRPRPYYKPRP  -0.215
52. RRIRNRPPRLPRPRPRPLNEPRP  -0.233
53. RRIRNRPPRLPRPRPRPNHQPRP  -0.241
54. RRIRARPPRLPRPRPRPYVFPRP  -0.245
55. RRIRVRPPRLPRPRPRPLEMPRP  -0.308
56. RRIRQRPPRLPRPRPRPYAMPRP  -0.341
57. RRIRWRPPRLPRPRPRPTIRPRP  -0.343
58. RRIRVRPPRLPRPRPRPAIPPRP  -0.356
59. RRIRHRPPRLPRPRPRPGKHPRP  -0.362
60. RRIRSRPPRLPRPRPRPGMQPRP  -0.394
61. RRIRTRPPRLPRPRPRPPYDPRP  -0.398
62. RRIRCRPPRLPRPRPRPSAYPRP  -0.406
63. RRIRLRPPRLPRPRPRPCQYPRP  -0.448
64. RRIRYRPPRLPRPRPRPGFHPRP  -0.564
65. RRIRYRPPRLPRPRPRPDRMPRP  -0.566
66. RRIRIRPPRLPRPRPRPADYPRP  -0.635
67. RRIRHRPPRLPRPRPRPENKPRP  -0.639
68. RRIRERPPRLPRPRPRPSNPPRP  -0.681
69. RRIRYRPPRLPRPRPRPTNKPRP  -0.699
70. RRIRNRPPRLPRPRPRPHKDPRP  -0.737
71. RRIRSRPPRLPRPRPRPSYNPRP  -0.759
72. RRIRSRPPRLPRPRPRPMYVPRP  -0.84
73. RRIRLRPPRLPRPRPRPFYIPRP  -0.865
74. RRIRIRPPRLPRPRPRPSYHPRP  -0.933
75. RRIRVRPPRLPRPRPRPYRSPRP  -1.55
